Measured values: US20090215197A1, “TARGET SUBSTANCE CAPTURING MOLECULE” (CANON KABUSHIKI KAISHA, published 2009)

B1: MBP-bound VHH-Jun/MBP-bound ankyrine Fos hetero dimer (other)
chain 1: PWQVQLQESGPGLLKPSETLFLTCTVSGFSISGGYYWGWFRQPPGKEREWIGSVYHSGSTYYNKSLESRVTISIHTSESQISLKLNSVTAADTAVYSCARYRTAHPLWGQGTMVTVSSEFGGGGSGGGGSGGGGSRIARLEEKVKTLKAQNSELASTANMLREQVAQLKQKVMNYFGC
chain 2: PWNAADNTGTTPLHLAAYSGHLEIVEVLLKHGADVDASDVFGYTPLHLAAYWGHLEIVEVLLKNGADVNAMDSDGMTPLHLAAKWGYLEIVEVLLKHGADVNAQDKFGKTAFDISIDNGNEDLAEILQEFGGGGSGGGGSGGGGSLTDTLQAETDQLEDKKSALQC
B2: MBP-bound VHH-Jun fusion protein and MBP-bound peptide-Fos fusion protein hetero dimer (other)
chain 1: PWQVQLQESGPGLLKPSETLFLTCTVSGFSISGGYYWGWFRQPPGKEREWIGSVYHSGSTYYNKSLESRVTISIHTSESQISLKLNSVTAADTAVYSCARYRTAHPLWGQGTMVTVSSEFGGGGSGGGGSGGGGSRIARLEEKVKTLKAQNSELASTANMLREQVAQLKQKVMNYFGC
chain 2: TPIHRRRQFNTGEFGGGGSGGGGSGGGGSLTDTLQAETDQLEDKKSALQTEIANLLKEKEKLEFILAAYRLC
B3: MBP bound antibody domain (VHH) (VHH)
VHH: QVQLQESGPGLLKPSETLFLTCTVSGFSISGGYYWGWFRQPPGKEREWIGSVYHSGSTYYNKSLESRVTISIHTSESQISLKLNSVTAADTAVYSCARYRTAHPLWGQGTMVTVSS

Experiments:
[1] = target: T1, Maltose-binding protein (MBP) (Escherichia coli (strain K12), UniProt P0AEX9 = MBP); experiment: SPR (BIAcore), MBP immobilized on CM5 chip, 0.1% Tween 20/PBS, 25 C
[2] = target: T1, Maltose-binding protein (MBP); experiment: SPR (BIAcore), same manner as in Example 10 (MBP immobilized on CM5 chip)
Procedure: In comparison with the single stranded MBP-bound VHH/MBP-bound ankyrine fused protein obtained in Example 4, and the MBP-bound VHH-Jun/MBP-bound ankyrine Fos hetero dimer obtained in Example 9, the MBP bound antibody domain (VHH), which is a single domain protein bound to MBP and represented by Sequence ID No. 2 and the MBP-bound ankyrine represented by Sequence ID No. 6 were evaluated by SPR (manufactured by BIAcore). As a substrate, CM5 (manufactured by BIAcore) is used. MBP is immobilized onto the substrate in accordance with the method recommended by the manufacturer. The MBP immobilized chip thus obtained is subjected to evaluation under the conditions: running Buffer: 0.1% Tween 20/PBS, flow rate: 20 μL/min, and temperature: 25° C. […] The capturing molecule according to the present invention has a high binding ability, compared to the capturing molecule known in the art binding to a target substance at a single epitope (or single site).
MBP-bound VHH-Jun fusion protein and MBP-bound peptide-Fos fusion protein hetero dimer obtained in Example 14 was evaluated for SPR (manufactured by BIAcore) in the same manner as in Example 10.

Row | Binder | Kd [1] [nM] | Kd [2] [nM]
1 | B1 | 1 | 
2 | B2 |  | 10
3 | B3 | 1000 | 
